B1: Bgl3 (Streptomyces sp. QM-B814) (protein)
chain: MVPAAQQTATAPDAALTFPEGFLWGSATASYQIEGAAAEDGRTPSIWDTYARTPGRVRNGDTGDVATDHYHRWREDVALMAELGLGAYRFSLAWPRIQPTGRGPALQKGLDFYRRLADELLAKGIQPVATLYHWDLPQELENAGGWPERATAERFAEYAAIAADALGDRVKTWTTLNEPWCSAFLGYGSGVHAPGRTDPVAALRAAHHLNLGHGLAVQALRDRLPADAQCSVTLNIHHVRPLTDSDADADAVRRIDALANRVFTGPMLQGAYPEDLVKDTAGLTDWSFVRDGDLRLAHQKLDFLGVNYYSPTLVSEADGSGTHNSDGHGRSAHSPWPGADRVAFHQPPGETTAMGWAVDPSGLYELLRRLSSDFPALPLVITENGAAFHDYADPEGNVNDPERIAYVRDHLAAVHRAIKDGSDVRGYFLWSLLDNFEWAHGYSKRFGAVYVDYPTGTRIPKASARWYAEVARTGVLPTA
notes: wild-type; pET-22b, E. coli BL21(DE3), Ni-NTA purified

How the values were obtained:
6151 = tested on: T1, 6151; assay: fluorescence of released 4-methylumbelliferone, Michaelis-Menten fit; format: biochemical, Streptomyces sp.; settings: 10 nM enzyme, 0.5% DMSO, 10 mM phosphate pH 7, 50 mM NaCl
T1 construct: gene P6F0-P1F1-P5F2-P1F3; pET-22b, Ni-NTA purified
From the text: fluorescence of released 4-methylumbelliferone, Michaelis-Menten fit on 6151 | We also tested the enzymes’ Michaelis–Menten kinetic properties

[1] = substrate: Cc1cc(=O)oc2cc(O[C@@H]3O[C@H](CO)[C@@H](O)[C@H](O)[C@H]3O)ccc12; assay: as above; format: biochemical, Streptomyces sp. QM-B814; settings: 10 nM enzyme, 0.5% DMSO, 10 mM phosphate pH 7, 50 mM NaCl

| Molecule | Km 6151 [µM] | Km [1] [µM] | kcat [1] [s⁻¹] |
| --- | --- | --- | --- |
| Cc1cc(=O)oc2cc(O[C@@H]3O[C@H](CO)[C@@H](O)[C@H](O)[C@H]3O)ccc12 [4-methylumbelliferyl-β-D-glucopyranoside] | 214 |  |  |
| B1 |  | 76 | 10.7 |

Source: publication PMC10926838, “Self-driving laboratories to autonomously navigate the protein fitness landscape” (Nature chemical engineering, 2024)
